Measurements taken from PMC12412624, “Engineered Cas12j‐8 is a Versatile Platform for Multiplexed Genome Modulation in Mammalian Cells”.
Residue numbers refer to the chain shown, from its start.

Assays:
[1] = system: T1, dCas12j-8 E100R E100R;D369A;E567A;D658A (bacteriophage (metagenome)); conditions: HEK293T cells; panel 1c (compare within a panel only); scale: mean GFP / mean GFP of wild type, printed, no background subtraction
T1 sequence: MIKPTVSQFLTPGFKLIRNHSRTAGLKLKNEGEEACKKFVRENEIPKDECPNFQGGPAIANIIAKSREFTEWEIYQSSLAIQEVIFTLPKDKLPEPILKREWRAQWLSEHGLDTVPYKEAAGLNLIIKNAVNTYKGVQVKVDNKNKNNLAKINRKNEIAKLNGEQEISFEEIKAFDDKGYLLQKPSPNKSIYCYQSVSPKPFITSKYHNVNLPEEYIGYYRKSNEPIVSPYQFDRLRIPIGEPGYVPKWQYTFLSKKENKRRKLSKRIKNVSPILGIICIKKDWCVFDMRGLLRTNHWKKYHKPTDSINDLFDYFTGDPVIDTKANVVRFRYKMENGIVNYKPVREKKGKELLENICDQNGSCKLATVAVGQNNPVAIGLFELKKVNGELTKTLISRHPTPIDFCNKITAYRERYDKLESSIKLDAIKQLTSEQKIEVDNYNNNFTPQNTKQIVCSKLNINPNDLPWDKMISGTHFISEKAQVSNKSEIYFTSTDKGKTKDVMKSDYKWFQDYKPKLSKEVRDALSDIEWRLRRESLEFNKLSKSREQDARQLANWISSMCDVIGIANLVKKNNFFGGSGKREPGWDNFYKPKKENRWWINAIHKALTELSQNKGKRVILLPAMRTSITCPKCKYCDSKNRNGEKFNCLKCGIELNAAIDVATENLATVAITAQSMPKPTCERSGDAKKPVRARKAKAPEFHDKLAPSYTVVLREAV

[2] = system: T2, dCas12j-8 D527R D527R;D369A;E567A;D658A (bacteriophage (metagenome)); conditions: HEK293T cells; panel 1c (compare within a panel only); scale: mean GFP / mean GFP of wild type, printed, no background subtraction
T2 sequence: T1 sequence with R100E, D527R

[3] = system: T3, dCas12j-8 E258R E258R;D369A;E567A;D658A (bacteriophage (metagenome)); conditions: HEK293T cells; panel 1c (compare within a panel only); scale: mean GFP / mean GFP of wild type, printed, no background subtraction
T3 sequence: T1 sequence with R100E, E258R

[4] = system: T4, dCas12j-8 E258R+D142R E258R;D142R;D369A;E567A;D658A (bacteriophage (metagenome)); conditions: HEK293T cells; panel 1d (compare within a panel only); scale: mean GFP / mean GFP of wild type, printed, no background subtraction
T4 sequence: T1 sequence with R100E, D142R, E258R

## CUUUCAAGACUAAUAGAUUGCUCCUUACGAGGAGACACUCCCUAUCAGUGAUAGAG / TTNACTCCCTATCAGTGATAGAG / CTCTATCACTGATAGGGAGTNAA [TetO]
[1]
  binding signal: 0.834
[2]
  binding signal: 1.56
[3]
  binding signal: 1.68
[4]
  binding signal: 1.87
